Assay [1] deals with T1, human α4β7 integrin on cells (human, UniProt P13612 34-1032; P26010 20-798).
T1 construct: whole, on cells; also called α4β7 cell (Hu); RPMI8866 cells
In words: α4β7 T cells.

The target in assay [2] is T2, mouse α4β7 integrin on TK1 cells (mouse, UniProt Q00651 41-1039; P26011 20-806).
T2 construct: whole, on cells; also called α4β7 cell (Mu); Cell Adhesion α4β7 Mouse
In words: TK1 cell adhesion to MAdCAM-1.

Assay [3] has as its target T1, human α4β7 integrin on cells. In words: RPMI8866 cell adhesion to MAdCAM-1.
Assay [4] deals with T3, α4β1 (R&D Systems #5668-A4) (UniProt P13612 34-970; P05556 21-728, limits assumed).
T3 construct: bought; also called soluble α4β1
Description: competition ELISA vs VCAM-1, 1 mM Mg. The method, then: The solution was removed by shaking and then blocked with 250 ul of 1% BSA in 1×PBS per well. The wells were then incubated at room temperature for 1 hr with shaking. Each well was then washed once with wash buffer (50 mM Tris-HCl pH7.6, 100 mM NaCL, 1 mM MnCl2 or MgCl2, 0.05% Tween-20). 25 ul of serial dilutions of peptides starting at […] in assay buffer (Assay buffer: 50 mM Tris-HCl pH7.6, 100 mM NaCl, 1 mM MnCl2 or MgCl2, 0.05% Tween-20) was added to each well. Additionally, 25 ul of α4β1 (R&D Systems #5668-A4) was added to each well at a fixed concentration of 120 nM. The final peptide and α4β1 concentrations were […] and 60 nM, respectively. The plates were then incubated at 37° C. for 2 hr. The solution was then removed by shaking, and each well was washed three times with wash buffer. 50 ul of 9F10 antibody at 4 ug/ml (purified mouse anti-human CD49d, BD Bioscience Cat #555502) was then added to each well, and the plate was incubated at room temperature for 1 hr with shaking. The solution was again removed by shaking, and each well was washed three times with wash buffer. 50 ul of peroxidase-conjugated AffiniPure Goat anti-mouse IgG (Jackson immune research cat #115-035-003) diluted in 1:5000 in assay buffer was added to each well. The plate was incubated at room temperature for 30 min with shaking. […] The reaction was stepped with 2N H₂SO₄ and absorbance was read at 450 nm. […]
(In general: An ELISA detects its analyte on a solid surface through an enzyme-linked reagent.)

Assay [5] concerns the target T4, human αLβ2 integrin on cells (human, UniProt P20701 26-1170; P05107 23-769).
T4 construct: whole, on cells; also called aLβ2
Description: memory T cell adhesion to ICAM-1.

Assay [6] has as its target T5, human α4β1 integrin on cells (human, UniProt P13612 34-1032; P05556 21-798).
T5 construct: whole, on cells; also called α4β1 cell; Jurkat cells
In words: memory T cell adhesion to VCAM-1.

Assay [7] has as its target T6, rh integrin α4β7 (R&D Systems #5397-A30) (human, UniProt P13612 34-970; P26010 20-723).
T6 construct: bought; coated on a nickel coated plate; also called immobilized α4β7; immobilized α4β7 integrin protein
In words: competition ELISA vs MAdCAM-1, 1 mM Mg.

In assay [8] the target is T1, human α4β7 integrin on cells. In words: memory T cell adhesion to MAdCAM-1, average of 4 donors.
Assay [9] shares this target. Description: PBMC memory T cell adhesion.
In assay [10] the target is T2, mouse α4β7 integrin on TK1 cells. In words: TK1 cell adhesion to MAdCAM-1. The source holds these as a separate data set.
The target in assay [11] is T6, rh integrin α4β7 (R&D Systems #5397-A30). In words: competition ELISA vs MAdCAM-1.
Assay [12] has as its target T5, human α4β1 integrin on cells. In words: Jurkat cell adhesion to VCAM-1.
For assay [13], the target named is T1, human α4β7 integrin on cells. In words: RPMI8866 cell adhesion to MAdCAM-1. This is another data set of the same source.
For assay [14] the target is unchanged. In words: PBMC memory T cell adhesion; acetate salt.
Assay [15] addresses T3, α4β1 (R&D Systems #5668-A4). In words: competition ELISA vs VCAM-1; acetate salt.
Assay [16] has as its target T2, mouse α4β7 integrin on TK1 cells. In words: TK1 cell adhesion to MAdCAM-1; acetate salt.
Assay [17] concerns the target T6, rh integrin α4β7 (R&D Systems #5397-A30). In words: competition ELISA vs MAdCAM-1; acetate salt.
In assay [18] the target is T1, human α4β7 integrin on cells. In words: RPMI8866 cell adhesion to MAdCAM-1; acetate salt.
Assay [19] deals with T7, soluble α4β7 integrin (UniProt P13612 34-970; P26010 20-723, limits assumed).
T7 construct: analyte of the SPR experiment
In words: SPR. Background: Surface plasmon resonance follows binding to a sensor surface in real time, without labels.

In assay [20] the target is T7, soluble α4β7 integrin. In words: SPR, binder on streptavidin chip, soluble α4β7.
In assay [21] the target is T1, human α4β7 integrin on cells. Description: RPMI8866/MAdCAM cell adhesion.

Bridge positions count the residues as written; N and C are the ends. Square brackets hold non-standard residues; d marks the D form. Ends that are not written are not given here. Phe(4-tBu) = CC(C)(C)c1ccc(C[C@H](N)C(=O)O)cc1; NMeR = CN[C@@H](CCCNC(=N)N)C(=O)O; β3hE = N[C@@H](CCC(=O)O)CC(=O)O; Pen = CC(C)(S)[C@H](N)C(=O)O

This note sets out measurements from patent US20220162261A1 (published 2022).

The IC50 is the concentration needed to halve the response being measured. By Kd is commonly meant the free concentration of one partner at which half of the binding sites on the other are occupied at equilibrium, for simple one-to-one binding. Low readings indicate higher affinity, high ones lower affinity. What is called koff is the rate constant with which the complex falls apart. Read a high koff as a short-lived complex. One may read the kon as the rate constant with which the complex forms. Low values mean slower complex formation, high ones faster complex formation.

T2 sequence (Q00651 41-1039, chain 1 of 2): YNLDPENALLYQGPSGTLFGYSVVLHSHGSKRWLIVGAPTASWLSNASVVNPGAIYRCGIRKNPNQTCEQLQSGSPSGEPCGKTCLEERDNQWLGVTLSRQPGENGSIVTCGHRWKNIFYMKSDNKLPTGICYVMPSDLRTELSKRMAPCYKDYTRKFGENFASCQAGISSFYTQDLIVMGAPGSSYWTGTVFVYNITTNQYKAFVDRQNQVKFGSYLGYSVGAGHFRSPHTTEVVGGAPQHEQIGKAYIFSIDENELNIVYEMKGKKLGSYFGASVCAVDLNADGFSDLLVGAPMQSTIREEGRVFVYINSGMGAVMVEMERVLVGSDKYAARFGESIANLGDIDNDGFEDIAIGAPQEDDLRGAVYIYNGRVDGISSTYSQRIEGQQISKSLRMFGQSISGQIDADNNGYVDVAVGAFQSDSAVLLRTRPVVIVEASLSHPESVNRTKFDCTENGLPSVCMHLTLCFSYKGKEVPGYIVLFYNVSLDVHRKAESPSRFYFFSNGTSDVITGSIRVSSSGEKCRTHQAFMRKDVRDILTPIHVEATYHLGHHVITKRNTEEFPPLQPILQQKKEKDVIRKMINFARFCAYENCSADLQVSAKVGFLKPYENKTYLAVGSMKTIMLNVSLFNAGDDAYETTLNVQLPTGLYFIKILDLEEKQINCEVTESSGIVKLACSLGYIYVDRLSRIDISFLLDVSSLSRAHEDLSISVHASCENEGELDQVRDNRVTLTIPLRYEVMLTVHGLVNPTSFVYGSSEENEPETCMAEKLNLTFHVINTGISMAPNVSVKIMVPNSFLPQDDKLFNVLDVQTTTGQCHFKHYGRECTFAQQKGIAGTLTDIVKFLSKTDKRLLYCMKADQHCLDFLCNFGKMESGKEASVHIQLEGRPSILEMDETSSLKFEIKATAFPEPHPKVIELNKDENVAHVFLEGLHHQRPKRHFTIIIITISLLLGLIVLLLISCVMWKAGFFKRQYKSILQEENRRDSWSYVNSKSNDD
T2 sequence (P26011 20-806, chain 2 of 2): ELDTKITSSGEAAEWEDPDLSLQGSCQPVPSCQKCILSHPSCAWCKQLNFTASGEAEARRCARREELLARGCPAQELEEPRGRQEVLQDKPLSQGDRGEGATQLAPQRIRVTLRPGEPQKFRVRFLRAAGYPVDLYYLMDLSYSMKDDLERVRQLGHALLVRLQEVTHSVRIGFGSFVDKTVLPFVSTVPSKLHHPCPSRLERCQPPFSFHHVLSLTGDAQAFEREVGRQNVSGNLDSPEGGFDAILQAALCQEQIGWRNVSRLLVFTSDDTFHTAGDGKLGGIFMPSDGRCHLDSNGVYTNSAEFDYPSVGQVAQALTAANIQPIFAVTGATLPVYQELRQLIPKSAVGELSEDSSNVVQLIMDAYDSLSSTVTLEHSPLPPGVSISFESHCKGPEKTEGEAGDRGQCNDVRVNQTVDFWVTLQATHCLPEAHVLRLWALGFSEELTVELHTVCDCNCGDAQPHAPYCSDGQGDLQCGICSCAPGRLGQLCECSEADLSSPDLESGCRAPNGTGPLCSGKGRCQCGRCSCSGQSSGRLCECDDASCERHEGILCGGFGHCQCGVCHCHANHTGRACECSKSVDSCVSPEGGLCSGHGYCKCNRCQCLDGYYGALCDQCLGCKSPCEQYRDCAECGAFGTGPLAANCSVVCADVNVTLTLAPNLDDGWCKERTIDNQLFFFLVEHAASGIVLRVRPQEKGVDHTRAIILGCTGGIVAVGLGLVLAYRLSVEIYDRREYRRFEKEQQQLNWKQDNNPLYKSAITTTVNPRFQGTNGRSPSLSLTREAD
T4 sequence (P20701 26-1170, chain 1 of 2): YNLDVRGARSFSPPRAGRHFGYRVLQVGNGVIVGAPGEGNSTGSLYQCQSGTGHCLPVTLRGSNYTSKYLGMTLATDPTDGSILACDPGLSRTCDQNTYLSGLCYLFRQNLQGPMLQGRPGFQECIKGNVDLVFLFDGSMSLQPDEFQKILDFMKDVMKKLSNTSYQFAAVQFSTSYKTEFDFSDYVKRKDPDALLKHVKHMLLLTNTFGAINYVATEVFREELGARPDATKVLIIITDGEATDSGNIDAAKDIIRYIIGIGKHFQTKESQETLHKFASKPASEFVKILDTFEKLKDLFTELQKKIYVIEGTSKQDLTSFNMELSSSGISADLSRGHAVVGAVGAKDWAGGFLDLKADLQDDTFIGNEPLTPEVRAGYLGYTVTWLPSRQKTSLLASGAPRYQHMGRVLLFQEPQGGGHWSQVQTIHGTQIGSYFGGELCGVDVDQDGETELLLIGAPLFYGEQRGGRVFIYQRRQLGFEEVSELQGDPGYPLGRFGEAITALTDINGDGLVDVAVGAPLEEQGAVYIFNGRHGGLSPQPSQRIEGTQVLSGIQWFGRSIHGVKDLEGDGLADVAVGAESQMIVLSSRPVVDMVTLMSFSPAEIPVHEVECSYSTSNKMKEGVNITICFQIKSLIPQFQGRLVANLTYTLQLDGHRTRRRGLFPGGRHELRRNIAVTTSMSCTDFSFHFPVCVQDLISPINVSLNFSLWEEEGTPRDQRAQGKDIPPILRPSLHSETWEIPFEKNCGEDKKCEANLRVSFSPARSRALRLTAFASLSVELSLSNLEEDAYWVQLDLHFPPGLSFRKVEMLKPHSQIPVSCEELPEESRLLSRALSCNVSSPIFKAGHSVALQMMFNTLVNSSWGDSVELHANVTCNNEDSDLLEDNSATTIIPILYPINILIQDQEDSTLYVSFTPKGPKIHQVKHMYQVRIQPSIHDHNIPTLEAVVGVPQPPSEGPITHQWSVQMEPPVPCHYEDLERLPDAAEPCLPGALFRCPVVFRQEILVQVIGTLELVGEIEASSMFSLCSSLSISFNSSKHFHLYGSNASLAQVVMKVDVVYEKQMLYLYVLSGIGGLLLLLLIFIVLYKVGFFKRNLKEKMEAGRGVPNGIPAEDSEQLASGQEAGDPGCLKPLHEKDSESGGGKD
T4 sequence (P05107 23-769, chain 2 of 2): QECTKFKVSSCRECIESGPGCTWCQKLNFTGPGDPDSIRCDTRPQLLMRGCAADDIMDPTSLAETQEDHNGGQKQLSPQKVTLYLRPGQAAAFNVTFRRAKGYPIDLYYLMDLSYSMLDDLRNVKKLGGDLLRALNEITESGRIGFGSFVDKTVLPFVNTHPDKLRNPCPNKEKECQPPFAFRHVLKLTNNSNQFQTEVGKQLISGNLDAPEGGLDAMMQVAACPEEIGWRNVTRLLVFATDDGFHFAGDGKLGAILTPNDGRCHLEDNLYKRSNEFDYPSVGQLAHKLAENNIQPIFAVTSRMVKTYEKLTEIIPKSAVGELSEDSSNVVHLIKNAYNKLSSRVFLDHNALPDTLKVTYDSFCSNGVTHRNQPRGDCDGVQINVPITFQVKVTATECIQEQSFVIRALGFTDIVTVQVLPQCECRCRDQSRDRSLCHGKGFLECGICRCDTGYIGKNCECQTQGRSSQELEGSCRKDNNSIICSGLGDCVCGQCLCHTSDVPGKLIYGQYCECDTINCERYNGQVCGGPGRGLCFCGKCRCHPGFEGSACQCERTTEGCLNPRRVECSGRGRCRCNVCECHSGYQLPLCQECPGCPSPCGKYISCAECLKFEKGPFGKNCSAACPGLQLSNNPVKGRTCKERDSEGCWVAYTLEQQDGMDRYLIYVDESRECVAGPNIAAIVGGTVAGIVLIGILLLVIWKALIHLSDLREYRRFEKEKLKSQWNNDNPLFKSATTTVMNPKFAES

B1: Peptide X (peptide)
peptide: Ac-[Pen][NMeR]SDTL[Pen][Phe(4-tBu)][β3hE][dK]
modifications: disulfide 1-7; not fully specified (residue 10); printed as [Ac-Pen-(N-Me-Arg)-Ser-Asp-Thr-Leu-Pen-Phe(4-tBu)-(β-homoGlu)-(D-Lys)]2-DIG; also: homodimer via DIG linker on D-Lys side chains
notes: also called Compound X
Consider B1, for which the IC50 in assay [1] was 1 nM; in [2], 0.5 nM; in [3] it was 0.72 nM; in [4], above 10000 nM; in assay [5] it was above 100000 nM; in assay [6], above 100000 nM. In addition, the IC50 in [7] worked out at 3 nM; in assay [8], 1.3 nM.

B2: SEQ ID NO: 132 (peptide)
peptide: Ac-[Pen][NMeR]SDTL[Pen][Phe(4-tBu)][β3hE][dK]-NH2
modifications: disulfide 1-7; not fully specified (residue 10); printed as (Ac Pen N-Me-R S D T L Pen F(4tBu) b-H-E k NH2)2 DIG, disulfide Pen-Pen; also: homodimer, two subunits joined by DIG linker
notes: the second listing is the acetate salt
Consider B2, for which the IC50 in [9] was at most 10 nM; in [10], at most 10 nM; in assay [11] it was at most 10 nM; in assay [12] it was above 100000 nM; in [13], at most 10 nM; in assay [14] it was at most 10 nM. Also, the IC50 in [15] is above 500 nM; in assay [16], at most 10 nM; in assay [17] it was at most 10 nM; in assay [18], at most 10 nM.

B3: Peptide X-biotin (peptide)
peptide: Ac-[Pen][NMeR]SDTL[Pen][Phe(4-tBu)][β3hE][dK]
modifications: disulfide 1-7; not fully specified (residue 10); also: dimer of two subunits joined by a linker at D-Lys10, biotin attached via PEG linker, position not given here
For B3, the “fold lower KD than biotin-labeled vedolizumab” value in the assay with soluble α4β7 integrin [19] stood at 3.8 fold. For the same molecule, in the assay with soluble α4β7 integrin [20], binding was put at a Kd of 15.4 nM, the koff was 1.73e-05 s⁻¹ and the kon worked out at 1120 M⁻¹ s⁻¹.

B4: Peptide X Alexa 647 conjugate (peptide)
peptide: Ac-[Pen][NMeR]SDTL[Pen][Phe(4-tBu)][β3hE][dK]
modifications: disulfide 1-7; not fully specified (residue 10); also: Alexa 647 label, position not given here
With B4, in assay [21], inhibition was half-maximal at 0.15 nM (IC50).
